# Assays:
# [1] = target: His-tagged ectodomain of human transferrin receptor 1 (hTfR1, R121-F760) (human) (UniProt P02786); experiment: SPR; binder on protein A chip, hTfR1 as analyte, in presence of 250 nM hTf
# [2] = target: His-tagged ectodomain of human transferrin receptor 1 (hTfR1, R121-F760) (human) (UniProt P02786); experiment: SPR Biacore T200 single-cycle; hTfR1 captured on amine-coupled hTf, binder as analyte; 1:1 model
# [3] = target: His-tagged ectodomain of human transferrin receptor 1 (hTfR1, R121-F760) (human) (UniProt P02786); experiment: SPR; binder on protein A chip, hTfR1 as analyte, without hTf
# Sequence of His-tagged ectodomain of human transferrin receptor 1 (hTfR1, R121-F760) (human) (P02786 other isoform, or with tags, fused parts or gaps limits assumed): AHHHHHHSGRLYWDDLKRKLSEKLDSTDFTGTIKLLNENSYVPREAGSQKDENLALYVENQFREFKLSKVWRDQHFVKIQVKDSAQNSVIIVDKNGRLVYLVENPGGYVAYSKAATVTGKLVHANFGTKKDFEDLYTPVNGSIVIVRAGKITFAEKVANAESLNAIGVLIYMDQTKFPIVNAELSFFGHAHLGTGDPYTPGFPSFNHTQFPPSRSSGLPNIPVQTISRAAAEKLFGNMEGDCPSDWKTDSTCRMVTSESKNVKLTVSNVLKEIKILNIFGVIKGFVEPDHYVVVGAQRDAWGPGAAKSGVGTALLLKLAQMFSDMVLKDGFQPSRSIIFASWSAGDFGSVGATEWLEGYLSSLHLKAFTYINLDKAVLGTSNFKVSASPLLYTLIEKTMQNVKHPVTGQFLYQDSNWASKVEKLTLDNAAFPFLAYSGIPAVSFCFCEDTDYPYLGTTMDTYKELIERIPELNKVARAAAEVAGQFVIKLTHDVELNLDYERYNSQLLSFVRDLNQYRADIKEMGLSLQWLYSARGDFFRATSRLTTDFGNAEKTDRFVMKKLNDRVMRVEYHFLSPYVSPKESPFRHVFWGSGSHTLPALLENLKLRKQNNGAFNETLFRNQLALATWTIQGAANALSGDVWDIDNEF
substance,measurement,setting,value
"Benchmark antibody 128.1 (BA1), full length human IgG1",Kd,[1],0.0834 nM
same,koff,[1],5.77e-05 s⁻¹
same,kon,[1],692000 M⁻¹ s⁻¹
same,Kd,[2],0.0199 nM
same,koff,[2],5.63e-05 s⁻¹
same,kon,[2],2.82e+06 M⁻¹ s⁻¹
same,Kd,[3],0.101 nM
same,koff,[3],8.87e-05 s⁻¹
same,kon,[3],882000 M⁻¹ s⁻¹

# Reference: US20260116990A1
